Experimental data reported in patent US20190002549A1 (I MAB BIOPHARMA, published 2019).
Blank lines part the entries; values can stand above or below the binder they belong to.

Tests used:
[1] = target: T1, recombinant human GM-CSF protein (human, UniProt P04141 18-144); assay: cell-based or functional assay
[2] = target: T1, recombinant human GM-CSF protein; assay: ELISA, human GM-CSF coated at 1 µg/ml
Description: (§1) Recombinant human or rhesus GM-CSF protein (Genscript) was coated at 1 μg/ml in PBS onto microtiter plates for 2 h at room temperature (RT). After coating of antigen the wells were blocked with PBS/0.05% Tween (PBST) with 1% BSA for 1 h at RT. After washing of the wells with PBST, different concentrations of anti-GM-CSF antibodies were added to the well and incubated for 1 at RT. For detection of the binding antibodies, the HRP-conjugated secondary antibodies against mouse Fc (Jackson Immuno Research) were added, followed by the addition of fluorogenic substrates (Roche). Between all incubation steps, the wells of the plate were washed with PBST three times. Fluorescence was measured in a TECAN Spectrafluor plate reader.

[3] = target: T2, recombinant rhesus GM-CSF protein (rhesus, UniProt Q9GL44 18-144); assay: ELISA, rhesus GM-CSF coated at 1 µg/ml
T2 construct: Bought recombinant protein (Genscript)
Description: as §1

[4] = target: T1, recombinant human GM-CSF protein; assay: SPR Biacore T200, antibody captured by anti-mouse Fc, GM-CSF as analyte, 25 C, 1:1 model
Description: FIG. 4 plots the binding kinetics of 23F4 and 50C5 with recombinant human GM-CSF. […] The binding kinetics assay of antibody to antigen was performed using Biacore T200 system through a mouse antibody capture approach. The anti-mouse Fc IgG were immobilized on CMS sensor chip according to the manufacturer's instruction. The test antibody was injected and captured by the immobilized anti-mouse Fc IgG. And then serial concentrations of the antigen were individually injected, and the binding profile was recorded for each concentration of antigen analyte, respectively. The assay system was regenerated by injection of 10 mM Glycine-HCL pH 1.5 for 30 seconds. The running buffer was HBS-EP+ (10 mM HEPES, pH 7.4, 150 mM NaCl, 3 mM EDTA and 0.05% P20). The assay temperature was 25° C., and the association and dissociation time were 180 and 600 seconds, respectively.

[5] = target: T1, recombinant human GM-CSF protein; assay: competition ELISA: antibody titrated with biotinylated human GM-CSF (0.05 ug/ml) on coated human GM-CSF receptor alpha (CD116); signal is GM-CSF bound to the receptor
Description: After coating of antigen the wells were blocked with PBS/0.05% Tween (PBST) with 1% BSA for 1 h at RT. After washing of the wells with PBST, different concentrations of anti-GM-CSF antibodies were added to the well in the presence of biotinylated human GM-CSF protein (0.05 μg/ml) and incubated for 1 hr at RT.
For detection of the binding of biotinylated GM-CSF to the coated receptor, the HRP-conjugated Streptavidin was added, followed by the addition of fluorogenic substrates (Roche). Between all incubation steps, the wells of the plate were washed with PBST three times. Fluorescence was measured in a TECAN Spectrafluor plate reader.

T1 sequence (P04141 18-144 limits assumed): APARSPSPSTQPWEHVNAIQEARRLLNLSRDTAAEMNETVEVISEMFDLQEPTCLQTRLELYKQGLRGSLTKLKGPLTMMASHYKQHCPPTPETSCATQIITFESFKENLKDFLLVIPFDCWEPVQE
T2 sequence (Q9GL44 entry or part of it limits assumed): as the sequence (P04141 18-144 limits assumed) above, with S9G, E38K, I43V, T53S, R67Q, E104Q counted along it

IC50 in the inhibition of TF-1 proliferation [1]: ~0.0109 µg/mL
EC50 [2]: 0.0146 µg/mL
EC50 [3]: 0.0217 µg/mL
Kd [4]: 0.0443 nM
koff [4]: 0.00012 s⁻¹
kon [4]: 2.72e+06 M⁻¹ s⁻¹
B1: 50C5 (antibody, V domains shown)
VH: QVQLQQSAAELVRPGASVKMSCKASGYIFTPYSIHWIKQRPGQGLEWIGYINPSTGYIEYNQHFKDRTTLTADKSSSTAYMQLRSLTSEDSAVYYCARGGDYEGYFDYWGQGTTLTVSS
VL: DIQMTQSPDSLSASVGETVTITCRLNENIYSFLAWYQQRQGKSPQLLVYNAETLAEDVPSRFSGSGSGTQFSLKISSLQTDDFGTYYCQQHYGTPYTFGGGTNLEIE
notes: Mouse monoclonal antibody from a hybridoma; also called 5005 (misprint of 50C5); murine antibody 50C5

IC50 in the inhibition of TF-1 proliferation [1]: ~0.0109 µg/mL
EC50 [2]: 0.0118 µg/mL
EC50 [3]: 0.0102 µg/mL
Kd [4]: 0.0417 nM
koff [4]: 3.64e-05 s⁻¹
kon [4]: 872000 M⁻¹ s⁻¹
IC50 (read off the curve) [5]: ~1 µg/mL
B2: 23F4 (antibody, V domains shown)
VH: QVQLQQSGPELVKPGTSMKISCKTSDYTLTSHYLHWVKQRPGQGLEWIGWIFPGDDKTKYNEKFKGKATLTSDKTSNTAYMQLSSLTSEESAVYFCARGTKYLNWNFDVWGTGTTVTVSS
VL: DIVLTQPQKFLSTSVGDRVSVTCKANQNVGTTLAWYQQKPGQSPKALIYSASYRYSGVPDRFTGSGSGTDFTLTISNVQSEDLAEYFCHQYTTYPLTFGGGTKLEIK
notes: Mouse monoclonal antibody from a hybridoma; also called 23F4 antibody; murine antibody 23F4
